Assay [1] deals with human IL-7Ra expressed on CHOK1-human IL-7Ra cells (human) (UniProt P16871). As to the kind of experiment: flow cytometry, CHOK1-human IL-7Ra cells; negative control. A general note: Flow cytometry measures light scatter and fluorescence of single cells or particles in a stream.
In assay [2] the target is cynomolgus IL-7Ra expressed on CHOK1-cyno IL-7Ra cells (cynomolgus) (UniProt Q38IC7). As to the kind of experiment: flow cytometry, CHOK1-cyno IL-7Ra cells; negative control.
In assay [3] the target is T1, cynomolgus Fc-tag IL-7Ra protein (cynomolgus, UniProt Q38IC7 21-240).
T1 construct: also called cynomolgus IL-7Ra protein; not shown: Fc tag
T1 sequence: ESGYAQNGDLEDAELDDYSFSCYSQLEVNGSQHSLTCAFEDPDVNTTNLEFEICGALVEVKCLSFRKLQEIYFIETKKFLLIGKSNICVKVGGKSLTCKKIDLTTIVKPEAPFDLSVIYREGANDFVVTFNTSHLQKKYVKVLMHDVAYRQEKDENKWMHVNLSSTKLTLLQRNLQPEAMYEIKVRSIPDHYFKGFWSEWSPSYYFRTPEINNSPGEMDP
As to the kind of experiment: ELISA, cynomolgus Fc-tag IL-7Ra protein, HRP-labelled secondary antibody, OD 450 (right panel). (In general: In an ELISA, binding on a coated surface is turned into a signal by an enzyme label.)

Assay [4] has as its target T2, human IL-7Ra expressed on CHOK1-human IL-7Ra cells (human, UniProt P16871 21-459).
T2 construct: also called human IL-7Ra expressed on cell membrane; CD127
T2 sequence: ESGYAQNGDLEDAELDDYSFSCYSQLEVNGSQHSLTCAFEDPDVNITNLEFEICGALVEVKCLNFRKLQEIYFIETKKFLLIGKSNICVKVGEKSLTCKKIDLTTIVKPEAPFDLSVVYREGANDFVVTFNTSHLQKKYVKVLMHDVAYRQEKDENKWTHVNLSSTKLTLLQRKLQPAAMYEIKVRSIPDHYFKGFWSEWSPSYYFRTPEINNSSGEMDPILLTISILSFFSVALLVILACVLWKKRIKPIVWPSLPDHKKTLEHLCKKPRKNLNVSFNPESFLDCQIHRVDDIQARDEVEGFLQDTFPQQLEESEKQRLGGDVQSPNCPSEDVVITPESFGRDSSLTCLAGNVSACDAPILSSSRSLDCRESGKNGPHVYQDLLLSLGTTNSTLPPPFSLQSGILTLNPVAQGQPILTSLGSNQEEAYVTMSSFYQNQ
As to the kind of experiment: flow cytometry blocking assay: binding of hIL-7-his (0.1 ug/ml) to CHOK1-human IL-7Ra cells in the presence of the antibody, anti-His Alexa Fluor 488, MFI (left panel).

Assay [5] deals with T2, human IL-7Ra expressed on CHOK1-human …. As to the kind of experiment: flow cytometry on CHOK1-human IL-7Ra cells, MFI (upper left panel).
The target is the same in assay [6]. As to the kind of experiment: flow cytometry, CHOK1-human IL-7Ra cells.
Assay [7] has as its target T3, Human his-tag IL-7Ra protein (human, UniProt P16871 21-239).
T3 construct: Construct not described; Position of the tag unknown; also called IL-7Ra (Biacore analyte); not shown: his tag
T3 sequence: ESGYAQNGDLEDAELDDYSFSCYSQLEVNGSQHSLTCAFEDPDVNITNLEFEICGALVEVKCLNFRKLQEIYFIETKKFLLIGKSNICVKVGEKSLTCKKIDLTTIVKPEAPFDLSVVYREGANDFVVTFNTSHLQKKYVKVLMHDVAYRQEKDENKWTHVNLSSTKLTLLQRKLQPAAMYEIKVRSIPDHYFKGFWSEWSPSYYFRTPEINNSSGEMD
As to the kind of experiment: SPR Biacore 8K, antibody Fc-captured, human his-tag IL-7Ra analyte, 1:1 model. (In general: In SPR one partner is held on a chip, and binding of the other changes the refractive index at the surface.)

For assay [8], the target named is T4, cynomolgus IL-7Ra expressed on CHOK1-cyno IL-7Ra cells (cynomolgus, UniProt Q38IC7 21-459).
T4 sequence: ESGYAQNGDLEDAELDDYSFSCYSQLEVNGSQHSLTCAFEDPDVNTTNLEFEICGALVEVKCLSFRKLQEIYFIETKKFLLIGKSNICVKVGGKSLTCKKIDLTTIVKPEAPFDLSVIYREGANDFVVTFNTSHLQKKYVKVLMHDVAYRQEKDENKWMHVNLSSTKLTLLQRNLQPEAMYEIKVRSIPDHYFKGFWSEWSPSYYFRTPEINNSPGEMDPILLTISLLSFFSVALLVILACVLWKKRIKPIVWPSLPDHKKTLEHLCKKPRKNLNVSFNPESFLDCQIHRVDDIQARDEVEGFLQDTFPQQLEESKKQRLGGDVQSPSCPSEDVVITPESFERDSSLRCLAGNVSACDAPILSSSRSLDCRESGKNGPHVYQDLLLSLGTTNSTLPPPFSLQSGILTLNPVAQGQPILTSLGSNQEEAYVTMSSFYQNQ
As to the kind of experiment: flow cytometry, CHOK1-cyno IL-7Ra cells.

For assay [9], the target named is T4, cynomolgus IL-7Ra expressed on …. As to the kind of experiment: flow cytometry on CHOK1-cyno IL-7Ra cells, MFI (upper right panel).
Assay [10] addresses T5, human Fc-tag IL-7Ra protein (human, UniProt P16871 21-239).
T5 construct: also called human IL-7Ra protein; not shown: Fc tag fused to the N-terminus
T5 sequence: T3 sequence
As to the kind of experiment: ELISA, plate coated with human Fc-tag IL-7Ra protein, HRP-labelled secondary antibody, OD 450 (left panel).

Changes are numbered by the printed parent chain.

For the molecule “isotype hIgG4 antibody (negative control)”, in assay [1], the EC50 (as a rule, the midpoint of the concentration-response curve) came to 6.8 µg/mL and the Top (MFI) turned out to be 73 MFI. In [2], this molecule displayed an EC50 of 32.2 µg/mL and a Top (MFI) of 93.7 MFI.

B1: ADX-914 (Tab1) (antibody, human IgG1, kappa, V domains shown)
VH: EVQLVESGGGLVQPGRSLRLSCAASGFTFDDHAMHWVRQAPGKGLEWVSGISWNSRGIGYADSVKGRFTIFRDNAKNSLYLQMNSLRAEDTALYYCAKDEYSRGYYVLDVWGQGTTVTVSS
VL: AIQLTQSPSSLSASVGDRVTITCRASQGISSALAWYQQKPGKAPKLLIYDASSLESGVPSRFSGSGSGTDFTLTISSLQPEDFATYYCQQFNSYPLWITFGQGTRLEIKR
notes: also called benchmark antibody ADX-914
Regarding B1, the EC50 (read off the curve) (in general, the concentration at which the effect is half-maximal) was approximately 0.03 µg/mL in [3], approximately 0.1 µg/mL in [5], approximately 0.2 µg/mL in [9] and approximately 0.01 µg/mL in assay [10]. Further, the “IC50 (read off the curve)” value in [4] was approximately 0.1 µg/mL. Further, the values for the EC50 in assay [6] and in assay [8] were 0.31 µg/mL and 0.289 µg/mL, respectively. Moreover, the results for the “Top (MFI)” value in assay [6] and in assay [8] were 26000 MFI and 20800 MFI, respectively. For the same molecule, in assay [7], the Kd – broadly, the concentration at which binding is half-saturated – stood at 258 pM. For the same molecule, the off-rate (koff) (commonly the rate constant with which the complex falls apart) in assay [7] came out at 0.000297 s⁻¹. The on-rate (kon) (commonly the second-order rate constant of association) in assay [7] came out at 1.15e+06 M⁻¹ s⁻¹.

B2: HuAb005 (antibody, V domains shown)
VH: QVQLVQSGAEVKKPGASVKVSCKASGYRFTDYELHWVRQAPGQGLEWMGGIDPKTGGTAYNQKFKGRVTMTSDRSTSTVYMELSSLRSEDTAVYYCARSGGRWYFDVWGQGTTVTVSS
VL: DIVLTQSPASLAVSPGQRATITCRTSESVSIHLLHLMHWYQQKPGQPPKLLIYGASNLESGVPARFSGSGSGTDFTLTINPVEAEDTANYYCQQSIKDPYTFGGGTKVEIK
notes: Humanized version of cmAb011; also called humanized VL1 / humanized VH2
On to B2, for which, in [6], the EC50 stood at 0.188 µg/mL and the “Top (MFI)” value came out at 22300 MFI. In [7], this molecule registered a dissociation constant (Kd) of 214 pM, a koff of 0.000238 s⁻¹ and an on-rate (kon) of 1.11e+06 M⁻¹ s⁻¹. Moreover, in assay [8], the midpoint of the response, the EC50, lay at 0.207 µg/mL and the “Top (MFI)” value stood at 16900 MFI.

B3: HuAb020 (antibody, V domains shown)
VH: B2 VH with R38K, M48I, R67K, M70L
VL: DIVLTQSPDSLAVSLGERATINCRTSESVSIHLLHLMHWYQQKPGQPPKLLIYGASNLESGVPDRFSGSGSETDFTLTISSLQAEDVAVYYCQQSIKDPYTFGGGTKVEIK
notes: Humanized version of cmAb011; also called humanized VL4 / humanized VH5
As for B3, in assay [6], the EC50 worked out at 0.115 µg/mL and the “Top (MFI)” value came to 22500 MFI. In assay [8], it took 0.124 µg/mL to reach a half-maximal effect (EC50) and the “Top (MFI)” value worked out at 17600 MFI.

B4: HuAb003 (antibody, V domains shown)
VH: B2 VH with S72R, R74T
VL: B3 VL with L4M, E72G
notes: Humanized version of cmAb011; also called humanized VL3 / humanized VH1
With B4, in assay [6], a half-maximal response (EC50) required 0.21 µg/mL and the “Top (MFI)” value turned out to be 21700 MFI. In [7], this molecule gave a Kd of 212 pM, an off-rate constant (koff) of 0.000342 s⁻¹ and an on-rate (kon) of 1.61e+06 M⁻¹ s⁻¹. In [8], it took 0.239 µg/mL to reach a half-maximal effect (EC50) and the “Top (MFI)” value worked out at 16100 MFI.

B5: HuAb004 (antibody, V domains shown)
VH: B2 VH with S72R, R74T
VL: B3 VL
notes: Humanized version of cmAb011; also called humanized VL4 / humanized VH1
Turning to B5, in [6], it took 0.2 µg/mL to reach a half-maximal effect (EC50) and the “Top (MFI)” value was determined as 21500 MFI. In [7], this molecule came in with a Kd of 181 pM, a koff of 0.00029 s⁻¹ and a kon of 1.6e+06 M⁻¹ s⁻¹. For the same molecule, in assay [8], the EC50 stood at 0.206 µg/mL and the “Top (MFI)” value is 16200 MFI.

B6: HuAb019 (antibody, V domains shown)
VH: B2 VH with R38K, M48I, R67K, M70L
VL: B3 VL with L4M, E72G
notes: Humanized version of cmAb011; also called humanized VL3 / humanized VH5
Consider B6, for which, in assay [6], the EC50 is 0.536 µg/mL and the “Top (MFI)” value is 22800 MFI. In assay [8], the 50% effective concentration (EC50) was found to be 0.687 µg/mL and the “Top (MFI)” value stood at 18000 MFI.

B7: HuAb009 (antibody, V domains shown)
VH: B2 VH with R38K, M48I
VL: B2 VL
notes: Humanized version of cmAb011; also called humanized VL1 / humanized VH3
As for B7, in [6], the EC50 is 0.0719 µg/mL and the “Top (MFI)” value was 20900 MFI. In [7], this molecule came in with a Kd of 188 pM, a koff of 0.000267 s⁻¹ and an on-rate (kon) of 1.42e+06 M⁻¹ s⁻¹. For the same molecule, in assay [8], a half-maximal effect (EC50) was put at 0.0711 µg/mL and the “Top (MFI)” value came to 16600 MFI.

B8: HuAb008 (antibody, V domains shown)
VH: B2 VH
VL: B3 VL
notes: Humanized version of cmAb011; also called humanized VL4 / humanized VH2
As to B8, in assay [6], the concentration for a half-maximal effect (EC50) was determined as 0.171 µg/mL and the “Top (MFI)” value stood at 20400 MFI. In assay [7], this molecule gave a Kd of 118 pM, a koff of 0.00031 s⁻¹ and a kon of 2.64e+06 M⁻¹ s⁻¹. Further, in [8], a half-maximal effect (EC50) was put at 0.221 µg/mL and the “Top (MFI)” value came to 17600 MFI.

B9: cmAb011 (chimeric Ab011) (antibody, V domains shown)
VH: QVQLQQSGAELMRPGASVTLSCKTSGYRFTDYELHWVKQTPVRGLEWIGGIDPKTGGTAYNQKFKGKAILTSDRSSSTTYMELRSLASEDSAVYYCTRSGGRWYFDVWGTGTTVTVSS
VL: DIVLTQSPASLAVSLGQRATISCRTSESVSIHLLHLMHWYQQKPGQPPKLLIYGASNLESGVPARFSGSGSETDFTLNIHPVEEEDAATYFCQQSIKDPYTFGGGTKLEIKR
notes: also called chimeric antibody Ab011
On to B9, for which the concentration giving a half-maximal response (EC50 (read off the curve)) in assay [3] was approximately 0.04 µg/mL; in assay [5] it was approximately 0.2 µg/mL; in [9] it was approximately 0.3 µg/mL; in assay [10], approximately 0.02 µg/mL. Also, the EC50 was 0.0842 µg/mL in [6] and 0.134 µg/mL in assay [8]. In addition, the “Top (MFI)” value is 22400 MFI in assay [6] and 18400 MFI in assay [8]. The molecule further gave a dissociation constant Kd in [7] of 143 pM. The same molecule registered a koff in assay [7] of 0.000234 s⁻¹. The molecule also showed an on-rate constant (kon) in assay [7] of 1.64e+06 M⁻¹ s⁻¹.

For the origin of these results see US20260250402A1 (C O INMAGENE PTE, published 2026).
